US20160058848A1

Experiments:
[1] = biological target: T1, human corin variant Q568P, Q9Y5Q5
T1 chain: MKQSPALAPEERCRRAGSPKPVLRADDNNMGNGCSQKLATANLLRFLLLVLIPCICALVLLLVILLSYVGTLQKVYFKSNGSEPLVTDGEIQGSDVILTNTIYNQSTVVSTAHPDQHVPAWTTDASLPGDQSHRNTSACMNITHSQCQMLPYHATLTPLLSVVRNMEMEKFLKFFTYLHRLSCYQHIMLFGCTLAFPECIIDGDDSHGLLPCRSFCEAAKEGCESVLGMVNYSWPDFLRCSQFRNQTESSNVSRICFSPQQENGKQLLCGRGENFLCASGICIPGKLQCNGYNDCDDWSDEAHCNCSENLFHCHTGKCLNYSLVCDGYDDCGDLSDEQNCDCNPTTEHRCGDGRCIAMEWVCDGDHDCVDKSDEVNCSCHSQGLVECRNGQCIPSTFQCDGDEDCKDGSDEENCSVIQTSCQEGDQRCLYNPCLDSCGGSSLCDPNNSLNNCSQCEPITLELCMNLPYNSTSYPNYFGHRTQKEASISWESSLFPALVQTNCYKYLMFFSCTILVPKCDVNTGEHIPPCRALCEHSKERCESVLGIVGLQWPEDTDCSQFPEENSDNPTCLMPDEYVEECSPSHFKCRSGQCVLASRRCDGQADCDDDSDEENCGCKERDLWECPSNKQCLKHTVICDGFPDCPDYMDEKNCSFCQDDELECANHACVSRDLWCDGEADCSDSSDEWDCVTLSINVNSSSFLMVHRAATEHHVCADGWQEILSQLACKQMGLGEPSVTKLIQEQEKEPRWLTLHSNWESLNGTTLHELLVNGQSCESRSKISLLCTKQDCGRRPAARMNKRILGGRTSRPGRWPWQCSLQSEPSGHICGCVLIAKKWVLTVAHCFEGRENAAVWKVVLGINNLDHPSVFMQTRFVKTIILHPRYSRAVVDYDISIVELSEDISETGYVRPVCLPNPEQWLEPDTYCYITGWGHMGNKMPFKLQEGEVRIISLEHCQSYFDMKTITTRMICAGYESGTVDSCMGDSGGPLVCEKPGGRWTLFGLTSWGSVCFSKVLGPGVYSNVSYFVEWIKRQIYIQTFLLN

[2] = biological target: T2, human corin variant T555I/Q568P, Q9Y5Q5
T2 chain: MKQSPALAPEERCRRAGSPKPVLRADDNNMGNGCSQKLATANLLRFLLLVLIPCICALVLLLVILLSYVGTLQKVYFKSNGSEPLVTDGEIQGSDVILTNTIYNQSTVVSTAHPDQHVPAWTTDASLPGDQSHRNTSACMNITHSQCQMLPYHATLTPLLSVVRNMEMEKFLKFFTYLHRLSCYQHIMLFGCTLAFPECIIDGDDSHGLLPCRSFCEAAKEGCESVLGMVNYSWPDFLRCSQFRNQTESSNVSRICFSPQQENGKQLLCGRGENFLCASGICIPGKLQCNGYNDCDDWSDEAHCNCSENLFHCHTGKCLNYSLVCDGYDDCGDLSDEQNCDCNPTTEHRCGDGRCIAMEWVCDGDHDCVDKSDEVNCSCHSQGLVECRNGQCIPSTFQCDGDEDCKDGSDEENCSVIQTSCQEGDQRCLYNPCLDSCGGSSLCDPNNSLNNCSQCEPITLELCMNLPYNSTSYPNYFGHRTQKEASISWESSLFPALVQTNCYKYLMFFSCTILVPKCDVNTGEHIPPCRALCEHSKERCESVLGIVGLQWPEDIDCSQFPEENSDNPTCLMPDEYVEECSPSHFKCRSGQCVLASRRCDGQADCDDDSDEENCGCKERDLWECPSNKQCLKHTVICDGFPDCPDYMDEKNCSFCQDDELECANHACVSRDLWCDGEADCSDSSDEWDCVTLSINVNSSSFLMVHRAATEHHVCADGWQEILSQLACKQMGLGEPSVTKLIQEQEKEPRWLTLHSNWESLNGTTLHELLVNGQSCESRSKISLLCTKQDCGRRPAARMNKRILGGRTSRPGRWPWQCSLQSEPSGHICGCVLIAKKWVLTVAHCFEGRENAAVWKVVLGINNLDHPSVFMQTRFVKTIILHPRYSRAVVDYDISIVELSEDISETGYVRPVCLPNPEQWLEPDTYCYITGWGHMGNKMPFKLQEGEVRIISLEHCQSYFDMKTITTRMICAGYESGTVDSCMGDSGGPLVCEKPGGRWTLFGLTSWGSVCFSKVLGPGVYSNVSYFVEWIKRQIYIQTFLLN

[3] = biological target: T3, recombinant human corin wild-type (WT), Q9Y5Q5
T3 chain: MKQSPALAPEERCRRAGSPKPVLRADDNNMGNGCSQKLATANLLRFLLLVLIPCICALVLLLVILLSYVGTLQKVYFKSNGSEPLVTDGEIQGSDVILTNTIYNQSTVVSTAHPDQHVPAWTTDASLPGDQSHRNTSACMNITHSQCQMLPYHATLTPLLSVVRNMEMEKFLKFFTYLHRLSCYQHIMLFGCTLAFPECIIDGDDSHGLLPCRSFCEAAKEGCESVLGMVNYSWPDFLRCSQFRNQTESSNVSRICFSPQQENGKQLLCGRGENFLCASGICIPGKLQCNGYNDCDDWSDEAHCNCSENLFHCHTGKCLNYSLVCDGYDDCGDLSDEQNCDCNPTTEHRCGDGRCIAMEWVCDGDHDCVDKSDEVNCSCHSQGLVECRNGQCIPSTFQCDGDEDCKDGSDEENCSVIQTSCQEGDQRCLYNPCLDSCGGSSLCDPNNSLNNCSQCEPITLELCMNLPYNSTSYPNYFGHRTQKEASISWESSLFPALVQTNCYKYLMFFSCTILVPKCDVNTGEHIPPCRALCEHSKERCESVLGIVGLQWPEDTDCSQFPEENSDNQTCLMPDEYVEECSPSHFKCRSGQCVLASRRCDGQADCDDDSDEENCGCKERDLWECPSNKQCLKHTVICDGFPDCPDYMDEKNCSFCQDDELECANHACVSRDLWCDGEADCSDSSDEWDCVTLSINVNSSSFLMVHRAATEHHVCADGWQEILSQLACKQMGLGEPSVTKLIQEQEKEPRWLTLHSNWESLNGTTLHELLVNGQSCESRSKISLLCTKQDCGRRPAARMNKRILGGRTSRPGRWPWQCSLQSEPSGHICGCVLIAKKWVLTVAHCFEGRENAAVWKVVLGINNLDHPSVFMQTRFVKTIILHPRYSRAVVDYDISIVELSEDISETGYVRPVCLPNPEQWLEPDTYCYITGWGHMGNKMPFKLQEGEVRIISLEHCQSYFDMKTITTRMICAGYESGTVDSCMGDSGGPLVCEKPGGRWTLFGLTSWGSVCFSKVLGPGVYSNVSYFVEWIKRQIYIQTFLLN

B1: recombinant human proprotein convertase subtilisin/kexin-6 (PCSK6) with a C-terminal flag tag (protein)
chain: QVRSDPQALYFNDPIWSNMWYLHCGDKNSRCRSEMNVQAAWKRGYTGKNVVVTILDDGIERNHPDLAPNYDSYASYDVNGNDYDPSPRYDASNENKHGTRCAGEVAASANNSYCIVGIAYNAKIGGIRMLDGDVTDVVEAKSLGIRPNYIDIYSASWGPDDDGKTVDGPGRLAKQAFEYGIKKGRQGLGSIFVWASGNGGREGDYCSCDGYTNSIYTISVSSATENGYKPWYLEECASTLATTYSSGAFYERKIVTTDLRQRCTDGHTGTSVSAPMVAGIIALALEANSQLTWRDVQHLLVKTSRPAHLKASDWKVNGAGHKVSHFYGFGLVDAEALVVEAKKWTAVPSQHMCVAASDKRPRSIPLVQVLRTTALTSACAEHSDQRVVYLEHVVVRTSISHPRRGDLQIYLVSPSGTKSQLLAKRLLDLSNEGFTNWEFMTVHCWGEKAEGQWTLEIQDLPSQVRNPEKQGKLKEWSLILYGTAEHPYHTFSAHQSRSRMLELSAPELEPPKAALSPSQVEVPEDEEDYTAQSTPGSANILQTSVCHPECGDKGCDGPNADQCLNCVHFSLGSVKTSRKCVSVCPLGYFGDTAARRCRRCHKGCETCSSRAATQCLSCRRGFYHHQEMNTCVTLCPAGFYADESQKNCLKCHPSCKKCVDEPEKCTVCKEGFSLARGSCIPDCEPGTYFDSELIRCGECHHTCGTCVGPGREECIHCAKNFHFHDWKCVPACGEGFYPEEMPGLPHKVCRRCDENCLSCAGSSRNCSRCKTGFTQLGTSCITNHTCSNADETFCEMVKSNRLCERKLFIQFCCRTCLLAG
PCSK6-mediated activation cleavage (Western blot, densitometry) [1]: PCSK6-mediated activation cleavage was detected in corin WT and variants T555I or Q568P, but not variant T555I/Q568P
PCSK6-mediated activation cleavage (Western blot, densitometry) [2]: PCSK6-mediated activation cleavage was detected in corin WT and variants T555I or Q568P, but not variant T555I/Q568P
PCSK6-mediated activation cleavage (Western blot, densitometry) [3]: PCSK6-mediated activation cleavage was detected in corin WT and variants T555I or Q568P, but not variant T555I/Q568P
